Patent US20230265151A1, “GIP/GLP1 CO-AGONIST COMPOUNDS” (priority 2020, published 2023)
Substitutions are numbered along the chain they refer to.

T1: human GIP receptor (human, UniProt P48546 22-466)
T1 construct: whole, on cells; also called hGIPR; human glucose-dependent insulinotropic polypeptide receptor
T1 sequence (looked up): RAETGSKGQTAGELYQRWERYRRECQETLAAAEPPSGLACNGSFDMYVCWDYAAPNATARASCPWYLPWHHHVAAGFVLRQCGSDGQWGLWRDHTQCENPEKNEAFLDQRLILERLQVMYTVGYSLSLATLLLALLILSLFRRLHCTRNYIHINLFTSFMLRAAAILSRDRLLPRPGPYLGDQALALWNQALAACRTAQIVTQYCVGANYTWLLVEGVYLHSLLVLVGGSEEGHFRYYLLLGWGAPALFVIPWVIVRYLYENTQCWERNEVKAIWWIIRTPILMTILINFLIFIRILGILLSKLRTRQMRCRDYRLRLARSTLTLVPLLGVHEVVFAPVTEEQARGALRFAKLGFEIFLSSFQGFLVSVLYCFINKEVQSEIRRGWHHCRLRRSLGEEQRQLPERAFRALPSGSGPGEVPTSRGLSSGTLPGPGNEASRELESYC

B1: Y-Aib-EGT-αMeF(2F)-TSD-4Pal-SI-αMeL-LD-Orn-K((2-[2-(2-Amino-ethoxy)-ethoxy]-acetyl)2-(γ-Glu)-(4-(4-tert-butylphenyl)butanoyl))AQ-Aib-EFI-(D-Glu)-αMeY-LIEGGPSSGA … (peptide)
peptide: YXEGTXTSDXSIXLDXKAQXEFIXXLIEGGPSSGAPPPSK
modifications: Aib2, αMeF(2F)6, 4Pal10, αMeL13, Orn16, Aib20, D-Glu24, αMeY25; acylated K17, K40 (groups as in name); C-terminal amide
B2: Y-Aib-EGT-αMeF(2F)-TSD-4Pal-SI-αMeL-LD-Orn-K((2-[2-(2-Amino-ethoxy)-ethoxy]-acetyl)-(γ-Glu)-(4-(4-tert-butylphenyl)butanoyl))AQ-Aib-EFI-(D-Glu)-αMeY-LIEGGPSSGAP … (peptide)
peptide: B1 peptide
modifications: Aib2, αMeF(2F)6, 4Pal10, αMeL13, Orn16, Aib20, D-Glu24, αMeY25; acylated K17, K40 (groups as in name); C-terminal amide
B3: Y-Aib-EGT-αMeF(2F)-TSD-4Pal-SI-αMeL-LD-Orn-K((2-[2-(2-Amino-ethoxy)-ethoxy]-acetyl)2-(γ-Glu)-CO-(CH2)10-CH3)AQ-Aib-EFI-(D-Glu)-αMeY-LIEGGP S SGAPPP … (peptide)
peptide: B1 peptide
modifications: Aib2, αMeF(2F)6, 4Pal10, αMeL13, Orn16, Aib20, D-Glu24, αMeY25; acylated K17, K40 (groups as in name); C-terminal amide
B4: Y-Aib-EGT-αMeF(2F)-TSD-4Pal-SI-αMeL-LD-Orn-IAQ-Aib-K((2-[2-(2-Amino-ethoxy)-ethoxy]-acetyl)2-CO-(CH2)12-CO2H)FI-(D-Glu)-αMeY-LIEGGPSSGAPPP … (peptide)
peptide: B1 peptide with K17I, E21K
modifications: Aib2, αMeF(2F)6, 4Pal10, αMeL13, Orn16, Aib20, D-Glu24, αMeY25; acylated K21, K40 (groups as in name); C-terminal amide
B5: Y-Aib-EGT-αMeF(2F)-TSD-4Pal-SI-αMeL-LD-Orn-IAQ-Aib-K((2-[2-(2-Amino-ethoxy)-ethoxy]-acetyl)2-(γ-Glu)-(4-(4-tert-butylphenyl)butanoyl))FI-(D-Glu)-αMeY-LIEGGPSSGA … (peptide)
peptide: B1 peptide with K17I, E21K
modifications: Aib2, αMeF(2F)6, 4Pal10, αMeL13, Orn16, Aib20, D-Glu24, αMeY25; acylated K21, K40 (groups as in name); C-terminal amide
B6: Y-Aib-EGT-αMeF(2F)-TSD-4Pal-SI-αMeL-LD-Orn-K((2-[2-(2-Amino-ethoxy)-ethoxy]-acetyl)2-(γ-Glu)-CO-(CH2)10-CH3)AQ-Aib-K((2-[2-(2-Amino-ethoxy)-ethoxy]-acetyl)2-(γ- … (peptide)
peptide: YXEGTXTSDXSIXLDXKAQXKFIXXLIEGGPSSGAPPPS
modifications: Aib2, αMeF(2F)6, 4Pal10, αMeL13, Orn16, Aib20, D-Glu24, αMeY25; acylated K17, K21 (groups as in name); C-terminal amide
B7: Y-Aib-EGT-αMeF(2F)-TSD-4Pal-SI-αMeL-LD-Orn-IAQ-Aib-K((2-[2-(2-Amino-ethoxy)-ethoxy]-acetyl)2-(γ-Glu)-(4-(4-tert-butylphenyl)butanoyl))FI-(D-Glu)-αMeY-LIK((2-[2- … (peptide)
peptide: B6 peptide with K17I, E28K
modifications: Aib2, αMeF(2F)6, 4Pal10, αMeL13, Orn16, Aib20, D-Glu24, αMeY25; acylated K21, K28 (groups as in name); C-terminal amide
B8: Y-Aib-EGT-αMeF-TSD-4Pal-SI-αMeL-LD-Orn-K((2-[2-(2-Amino-ethoxy)-ethoxy]-acetyl)2-(γ-Glu)-CO-(CH2)10-CH3)AQ-Aib-EFI-(D-Glu)-αMeY-LIEGGK((2-[2-(2-Amino-ethoxy)-et … (peptide)
peptide: B6 peptide with K21E, P31K
modifications: Aib2, αMeF6, 4Pal10, αMeL13, Orn16, Aib20, D-Glu24, αMeY25; acylated K17, K31 (groups as in name); C-terminal amide
B9: Y-Aib-EGT-αMeF(2F)-TSD-4Pal-SI-αMeL-LD-Orn-K((2-[2-(2-Amino-ethoxy)-ethoxy]-acetyl)2-CO-(CH2)12-CO2H)AQ-Aib-EFI-(D-Glu)-αMeY-LIK((2-[2-(2-Amino-ethoxy)-ethoxy]- … (peptide)
peptide: B6 peptide with K21E, E28K
modifications: Aib2, αMeF(2F)6, 4Pal10, αMeL13, Orn16, Aib20, D-Glu24, αMeY25; acylated K17, K28 (groups as in name); C-terminal amide
B10: Y-Aib-EGT-αMeF(2F)-TSD-4Pal-SI-αMeL-LD-Orn-K((2-[2-(2-Amino-ethoxy)-ethoxy]-acetyl)-(γ-Glu)-(4-(4-tert-butylphenyl)butanoyl))AQ-Aib-K((2-[2-(2-Amino-ethoxy)-eth … (peptide)
peptide: B6 peptide
modifications: Aib2, αMeF(2F)6, 4Pal10, αMeL13, Orn16, Aib20, D-Glu24, αMeY25; acylated K17, K21 (groups as in name); C-terminal amide
B11: Y-Aib-EGT-αMeF(2F)-TSD-4Pal-SI-αMeL-LD-Orn-K((2-[2-(2-Amino-ethoxy)-ethoxy]-acetyl)-(γ-Glu)-(4-(4-tert-butylphenyl)butanoyl))AQ-Aib-EFI-(D-Glu)-αMeY-LIK((2-[2-( … (peptide)
peptide: B6 peptide with K21E, E28K
modifications: Aib2, αMeF(2F)6, 4Pal10, αMeL13, Orn16, Aib20, D-Glu24, αMeY25; acylated K17, K28 (groups as in name); C-terminal amide
B12: Y-Aib-EGT-αMeF(2F)-TSD-4Pal-SI-αMeL-LD-Orn-K((2-[2-(2-Amino-ethoxy)-ethoxy]-acetyl)2-CO-(CH2)12-CO2H)AQ-Aib-EFI-(D-Glu)-αMeY-LIEGGK((2-[2-(2-Amino-ethoxy)-ethox … (peptide)
peptide: B6 peptide with K21E, P31K
modifications: Aib2, αMeF(2F)6, 4Pal10, αMeL13, Orn16, K17(Z1), Aib20, D-Glu24, αMeY25, K31(Z1), C-term NH2; Z1=AEEA2-CO-(CH2)12-CO2H
B13: Y-Aib-EGT-αMeF(2F)-TSD-Ac5c-SI-αMeL-LD-Orn-K((2-[2-(2-Amino-ethoxy)-ethoxy]-acetyl)2-(γ-Glu)-CO-(CH2)12-CO2H)AQ-Aib-EFI-(D-Glu)-αMeY-LIEGGK((2-[2-(2-Amino-ethox … (peptide)
peptide: B6 peptide with K21E, P31K
modifications: Aib2, αMeF(2F)6, Ac5c10, αMeL13, Orn16, K17(Z1), Aib20, D-Glu24, αMeY25, K31(Z1), C-term NH2; Z1=AEEA2-(γ-Glu)-CO-(CH2)12-CO2H
B14: Y-Aib-EGT-αMeF(2F)-TSD-αMeL-SI-aMeL-LD-Orn-K((2-[2-(2-Amino-ethoxy)-ethoxy]-acetyl)2-(γ-Glu)-CO-(CH2)12-CO2H)AQ-Aib-EFI-(D-Glu)-αMeY-LIEGGK((2-[2-(2-Amino-ethox … (peptide)
peptide: B6 peptide with K21E, P31K
modifications: Aib2, αMeF(2F)6, αMeL10, αMeL13, Orn16, K17(Z1), Aib20, D-Glu24, αMeY25, K31(Z1), C-term NH2; Z1=AEEA2-(γ-Glu)-CO-(CH2)12-CO2H
B15: Y-Aib-EGT-αMeF(2F)-TSD-Bip-SI-αMeL-LD-Orn-K((2-[2-(2-Amino-ethoxy)-ethoxy]-acetyl)2-(γ-Glu)-CO-(CH2)12-CO2H)AQ-Aib-EFI-(D-Glu)-αMeY-LIEGGK((2-[2-(2-Amino-ethoxy … (peptide)
peptide: B6 peptide with K21E, P31K
modifications: Aib2, αMeF(2F)6, Bip10, αMeL13, Orn16, K17(Z1), Aib20, D-Glu24, αMeY25, K31(Z1), C-term NH2; Z1=AEEA2-(γ-Glu)-CO-(CH2)12-CO2H
B16: Y-Aib-EGT-αMeF(2F)-TSD-4Pal-SI-αMeL-LD-Orn-K((εK)-(2-[2-(2-Amino-ethoxy)-ethoxy]-acetyl)-(γ-Glu)-CO-(CH2)12-CO2H)AQ-Aib-EFI-(D-Glu)-αMeY-LIEGGK((εK)-(2-[2-(2-Am … (peptide)
peptide: B6 peptide with K21E, P31K
modifications: Aib2, αMeF(2F)6, 4Pal10, αMeL13, Orn16, K17(Z1), Aib20, D-Glu24, αMeY25, K31(Z1), C-term NH2; Z1=(εK)-AEEA-(γ-Glu)-CO-(CH2)12-CO2H
B17: Y-Aib-EGT-αMeF(2F)-TSD-4Pal-SI-αMeL-LD-Orn-K((2-[2-(2-Amino-ethoxy)-ethoxy]-acetyl)2-(εK)-CO-(CH2)12-CO2H)AQ-Aib-EFI-(D-Glu)-αMeY-LIEGGK((2-[2-(2-Amino-ethoxy)- … (peptide)
peptide: B6 peptide with K21E, P31K
modifications: Aib2, αMeF(2F)6, 4Pal10, αMeL13, Orn16, K17(Z1), Aib20, D-Glu24, αMeY25, K31(Z1), C-term NH2; Z1=AEEA2-(εK)-CO-(CH2)12-CO2H
B18: Y-Aib-EGT-αMeF(2F)-TSD-4Pal-SI-αMeL-LD-Orn-K((2-[2-(2-Amino-ethoxy)-ethoxy]-acetyl)3-(γ-Glu)-CO-(CH2)14-CH3)AQ-Aib-EFI-(D-Glu)-αMeY-LIEGGK((2-[2-(2-Amino-ethoxy … (peptide)
peptide: B6 peptide with K21E, P31K
modifications: Aib2, αMeF(2F)6, 4Pal10, αMeL13, Orn16, K17(Z1), Aib20, D-Glu24, αMeY25, K31(Z1), C-term NH2; Z1=AEEA3-(γ-Glu)-CO-(CH2)14-CH3

target: human glucagon receptor (human, UniProt P47871 26-477); assay: cell-based or functional assay

| Binder | cAMP EC50 (1.0% HSA) |
| --- | --- |
| B1 | > 9950 nM |
| B2 | > 9950 nM |
| B3 | > 9950 nM |
| B4 | > 9950 nM |
| B5 | > 9950 nM |
| B6 | > 9950 nM |
| B7 | > 9950 nM |
| B8 | > 9950 nM |
| B9 | > 9950 nM |
| B10 | > 9950 nM |
| B11 | > 9950 nM |

target: T1, human GIP receptor; assay: SPA competition vs [125I]-GIP, hGIPR membranes
Description: (§1) The binding buffer contains 25 mM HEPES, pH 7.4, 2.5 mM CaCl₂, 1 mM MgCl₂, 0.1% (w/v) bacitracin, 0.003% (w/v) TWEEN®-20, and Roche Complete™ Protease Inhibitors without EDTA. […] Plates are sealed and mixed on a plate shaker (setting 6) for 1 minute and read with a PerkinElmer Trilux MicroBeta® scintillation counter after 2.5 to 12 hours of incubation/settling time at room temperature.
(§2) Data are analyzed using four-parameter (curve maximum, curve minimum, IC₅₀, Hill slope) nonlinear regression routines (Genedata Screener, version 12.0.4, Genedata AG, Basal, Switzerland). […] Values for Kᵢ are reported as the geometric mean, with error expressed as the standard error of the mean (SEM) and n is equal to the number of independent replicates (determined in assays performed on different days). Geometric Means are calculated as follows: […]

| Binder | Ki |
| --- | --- |
| B12 | 0.0557 nM |
| B13 | 0.085 nM |
| B14 | 0.0741 nM |
| B15 | 0.252 nM |
| B16 | 0.103 nM |
| B17 | 0.117 nM |
| B18 | 0.0308 nM |

target: T2, human glucagon receptor (human, UniProt P47871 26-477); assay: SPA competition vs [125I]-Gcg, hGcgR membranes
T2 construct: whole, on cells; also called hGCGR; hGcgR
Description: as §1, with “4-(2-hydroxyethyl)-1-piperazineethanesulfonic acid (HEPES),” for “HEPES,”, “MgCh,” for “MgCl₂,”, “bacitracin (Research Products),” for “bacitracin,”, “Polyoxyethylenesorbitan monolaurate (TWEEN®-20),” for “TWEEN®-20,”, “after” for “after 2.5 to”
Data are analyzed using four-parameter (curve maximum, curve minimum, IC₅₀, Hill slope) nonlinear regression routines (Genedata Screener, version 12.0.4, Genedata AG, Basal, Switzerland). […] Values for Kᵢ are reported as the geometric mean, with error expressed as the standard error of the mean (SEM) and n is equal to the number of independent replicates (determined in assays performed on different days).
T2 sequence (P47871 26-477): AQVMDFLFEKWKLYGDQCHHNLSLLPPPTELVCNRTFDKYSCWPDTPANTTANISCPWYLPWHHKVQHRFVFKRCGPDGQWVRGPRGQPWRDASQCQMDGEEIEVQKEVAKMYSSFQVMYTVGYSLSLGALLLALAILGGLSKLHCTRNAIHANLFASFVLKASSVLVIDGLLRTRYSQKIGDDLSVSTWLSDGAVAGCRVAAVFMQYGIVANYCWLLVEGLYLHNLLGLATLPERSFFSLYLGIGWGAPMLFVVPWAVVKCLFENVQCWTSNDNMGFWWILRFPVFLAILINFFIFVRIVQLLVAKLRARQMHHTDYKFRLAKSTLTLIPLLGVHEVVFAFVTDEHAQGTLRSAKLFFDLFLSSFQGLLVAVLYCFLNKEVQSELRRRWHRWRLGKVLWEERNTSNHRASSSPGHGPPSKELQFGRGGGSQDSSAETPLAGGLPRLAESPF

| Binder | Ki |
| --- | --- |
| B12 | 209 nM |
| B13 | 274 nM |
| B14 | 51.7 nM |
| B15 | 299 nM |
| B16 | 611 nM |
| B17 | 264 nM |
| B18 | 0.62 nM |

target: T3, human GLP-1 receptor (human, UniProt P43220 24-463); assay: SPA competition vs [125I]-GLP-1, hGLP-1R membranes
T3 construct: whole, on cells; also called hGLP-1R; human glucagon-like peptide-1 receptor
Description: The binding buffer contains 25 mM HEPES, pH 7.4, 2.5 mM CaCl₂, 1 mM MgCl₂, 0.1% (w/v) bacitracin, 0.003% (w/v) TWEEN®-20, and Roche Complete™ Protease Inhibitors without EDTA.
as §2

| Binder | Ki |
| --- | --- |
| B13 | 1.46 nM |
| B14 | 1.64 nM |
| B15 | 5.17 nM |
| B16 | 1.47 nM |
| B17 | 1.34 nM |
